Laboratory results taken from the nanobody polyreactivity screen of Harvey et al. (2022).

Experiment: yeast display, Sf9 membrane polyspecificity reagent, FACS + sequencing; frameworks hold sequencing errors
Summary of the method: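 A synthetic nanobody library was expressed on Saccharomyces cerevisiae BJ5465 by galactose induction for 36–48 hours. The library was stained for 1 hour at 4 °C with 10% biotinylated, detergent-solubilized Sf9 membrane reagent and enriched with streptavidin microbeads before FACS. Low and high (top ~1%) gates were set on anti-HA fluorescence for expression and streptavidin fluorescence for reagent binding, and each polyreactivity label reflects the gate of origin.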
With “QVQLVESGGGLVQAGGSLRLSCAASGLTIRSYGMGWYRQAPGKERELVASITWSGGSTYYADSVKGRFTISRDNAKNTVYLQMNSLKPEDTAVYYCAASFDFQGYHYGYWGQGTQVTVSS” the “polyreactivity (PSR sort gate)” value was “high polyreactivity”. In the case of “QVQLVESGGGLVQAGGSLRLSCAASGITFYYYAMGWYRQEPGKERELVAAINWSGTSTYYADSVKGRFTISRDNAKNTVYLQMNSLKPEDTAVYYCNAERGRSFWWAYDYWGQGTQVTVSS”, the “polyreactivity (PSR sort gate)” value is reported as “low polyreactivity”. For “QVQLVESGGGLVQAGGSLRLSCAASGRIFTRNAMGWYRQAPGKERELVATISAGGGRTSYADSVKGRFTISRDNAKNTVELQMNSLKPEDTAVYYCAARGQVGYYWGQGTQVTVSS”, the “polyreactivity (PSR sort gate)” value was “high polyreactivity”. For “QVQLQESGGGLVQAGGSLRLSCAASGTITVLYKMGWFRQAPGKEREFVASINYGTSTYYADSVKGRFTVSRDSAKNSVYLQMNSLKPEDTAVYYCAAAYRWQDVYRYWGQGTQVTVSS”, the “polyreactivity (PSR sort gate)” value was “low polyreactivity”. For “QVQLVESGGGLVQAGGRLRLSCAASGSTIGYYTMGWYRQAPGKERELVAAISWSGDSTYYADSVKGRFTISRDNAKNTVYLQMNSLKPEDTAVYYCAKVHYVRRGDSRYDYWGQGTQVTVSS”, the “polyreactivity (PSR sort gate)” value was “high polyreactivity”. In the case of “QVQLVESGGGLVQAGGSLRLSSAASGSTFLYVMGWYRQAPGKERELVAAISESGGSTYYADSVKGRFTISRDNAKNTVYLQMNSLKPEDTAVYYCAADLPTGLQYRYYRVDYWGHGTQVTVSS”, the “polyreactivity (PSR sort gate)” value is reported as “low polyreactivity”. With “QVQLVESGVGLVQAGGSLRLSCAASGIIFFFYAMGWYIQAPGKERELVAAISDDGVSTDYADSVKGRFTISRDNAKNTVYLQMNSLKPEDTAVYYCSAKNERVYPWFSFGYWGQGTQVTVSS” the “polyreactivity (PSR sort gate)” value was “low polyreactivity”. With “QVQLVESGGGLVQAGGSLRLSCAASGRTFWNYAMGWYRQAPGKERELVAVIRFSDGSTYYADSVKGRFTISRDNAKNTVYLQMNSLKPEDTAVYYCAAKGPRRWGSGFDYWGQATQVTVSS” the “polyreactivity (PSR sort gate)” value was “low polyreactivity”. In the case of “QVQLVESGGGLVQAGGSLRLSCAASGSTFISYAMGWYRQAPGKEREMVAAISWDGGSTYYADSVKGRFTISRDNAKNTVYLQMNSLKPEDTAVYYCNAEYDGAAGRYEYWGPGTQVTVSS”, the “polyreactivity (PSR sort gate)” value is reported as “low polyreactivity”. For “QVQLVESGGGLVQAGGSLRLSCAASGFTFGLYAMGWYRQAPGKERELVAAISSDGSTYYTDSVKGRFTISRDNAKNTVYLQMNSLKPEDTSVYYCNRDYPQSLPYYTNTILYGYWGQGTQVTVSS”, the “polyreactivity (PSR sort gate)” value was “low polyreactivity”. With “QVQLVESGGGLVQAGGSLRLSCAASGRTLGGYAMGWYRQAPGKERELVAVITWNGGSTYADSVKGRFTISRDNAKNTVYLQMNSLKPEDTAVYYCAADRFNKPYYYWGQGTQVTVSS” the “polyreactivity (PSR sort gate)” value was “high polyreactivity”. For “QVQLVESGGGLVQSGGSLRLSCAASGRIFRKYVMAWYRPAPGNERELVATISNRVGSTYYADSVKGRFTISRDKAKNTVYLQMNSLKPEDTAVYYCAAVSSYTAYDYWGQGTQVTVSS”, the “polyreactivity (PSR sort gate)” value was “high polyreactivity”. With “QVQHVESRGGLVQSGGSLRLSCAASGSIFSYYDLGWYRQAPGKERELVASISSGGSTYYADSVKGRFTISRDNAKNTVYLQMNSLKPEDTAVYYCAAVSRWLYWEDDYWGQGTQVTVSS” the “polyreactivity (PSR sort gate)” value was “low polyreactivity”. For “QVQLVESGGGLVQAGGSLRLSWAASGPTCGQLAMVWYRQAPGKERELVAAISYSGARTYYADSVKGRFTISRDNAKNTVDLQMNSLIPQDTAVKYCNAYSAYVNGNRRGLGYWGQGTHVTVSS”, the “polyreactivity (PSR sort gate)” value was “high polyreactivity”. In the case of “QVQRVESGGGLVQAGGRLRLSFAASGFIFYAMGWYRQAPGKERELVAAITLSDGTTYYADSVKGRFTISRDNAKNTVYLQLNSLKPEDTAVYYCAAEYSVPYRGWDGYEYWGQGTQVTVSS”, the “polyreactivity (PSR sort gate)” value is reported as “low polyreactivity”. For “QVQLVESGGGLVQAGGSLRLSCAASGRIFVGYAIGWYRQAPGKERELVAAINRSGSSTYYADSVKGRYTISRDNAKNTFYLQMNSLKPEDTAVYYCNARSGNRYGPRYDYWGQGTQVTVSS”, the “polyreactivity (PSR sort gate)” value was “high polyreactivity”. With “QVQLVESGGGLDLAGGSLRLTCAASGSTFTYYAMGWYRQAPGKERELVAAISWRGASTYYADSVKGRFTISRDNAKNTVYLQMNSLNPEDTAVNYCNAVKQRSSIFDYWGQGTQVTVSS” the “polyreactivity (PSR sort gate)” value was “low polyreactivity”.
